Laboratory results published in patent US20220017612A1 (TILOS THERAPEUTICS, published 2022).
Residue numbers refer to the chain shown, from its start. Names may count otherwise.

B1: N73D_V44P (antibody, human IgG1, kappa, V domains shown)
VH: EVQLVESGGGLVQPGGSLRLSCAASGFTFTDYYMSWVRQAPGKGLEWLGFIRNKPNGYTTEYSASVKGRFTISRDDSQSSLYLQMNSLKTEDTAVYYCARYTGGGYFDYWGQGTLLTVSS
VL: DIQMTQSPSSLSASVGDRLTISCRASQDISNYLNWYQQKPGKTPKLLIYYTSRLHSGVPSRFSGSGSGTDYTLTISSLQPEDVATYFCQQGDTLPWTFGQGTKLEIKR
notes: also called 28G11_H2L3 with HC N73D and LC V44P
B2: S76N_V44P (antibody, human IgG1, kappa, V domains shown)
VH: B1 VH with D76N, S79N
VL: B1 VL
notes: also called 28G11_H2L3 with HC S76N and LC V44P
B3: Q75K_V44P (antibody, human IgG1, kappa, V domains shown)
VH: B1 VH with D76N, Q78K
VL: B1 VL
notes: also called 28G11_H2L3 with HC Q75K and LC V44P
B4: T30S_T43V (antibody, human IgG1, kappa, V domains shown)
VH: B1 VH with T30S, D76N
VL: B1 VL with T43V, P44V
notes: also called 28G11_H2L3 with HC T30S and LC T43V
B5: Q75K_T43V (antibody, human IgG1, kappa, V domains shown)
VH: B1 VH with D76N, Q78K
VL: B1 VL with T43V, P44V
notes: also called 28G11_H2L3 with HC Q75K and LC T43V
B6: N73D_Y71F (antibody, human IgG1, kappa, V domains shown)
VH: B1 VH
VL: B1 VL with P44V, Y71F
notes: also called 28G11_H2L3 with HC N73D and LC Y71F
B7: S76N_T43V (antibody, human IgG1, kappa, V domains shown)
VH: B1 VH with D76N, S79N
VL: B1 VL with T43V, P44V
notes: also called 28G11_H2L3 with HC S76N and LC T43V
B8: S76N_WT (antibody, human IgG1, kappa, V domains shown)
VH: B1 VH with D76N, S79N
VL: B1 VL with P44V
notes: also called 28G11_H2L3 with HC S76N
B9: S76N_F87Y (antibody, human IgG1, kappa, V domains shown)
VH: B1 VH with D76N, S79N
VL: B1 VL with P44V, F87Y
notes: also called 28G11_H2L3 with HC S76N and LC F87Y
B10: T30S_V44P (antibody, human IgG1, kappa, V domains shown)
VH: B1 VH with T30S, D76N
VL: B1 VL
notes: also called 28G11_H2L3 with HC T30S and LC V44P
B11: T30S_F87Y (antibody, human IgG1, kappa, V domains shown)
VH: B1 VH with T30S, D76N
VL: B1 VL with P44V, F87Y
notes: also called 28G11_H2L3 with HC T30S and LC F87Y
B12: Q75K_WT (antibody, human IgG1, kappa)
heavy: not shown
light: DIQMTQSPSSLSASVGDRLTISCRASQDISNYLNWYQQKPGKTVKLLIYYTSRLHSGVPSRFSGSGSGTDYTLTISSLQPEDVATYFCQQGDTLPWTFGQGTKLEIKRTVAAPSVFIFPPSDEQLKSGTASVVCLLNNFYPREAKVQWKVDNALQSGNSQESVTEQDSKDSTYSLSSTLTLSKADYEKHKVYACEVTHQGLSSPVTKSFNRGEC
notes: also called 28G11_H2L3 with HC Q75K
B13: Q75K_L19V (antibody, human IgG1, kappa)
heavy: not shown
light: B12 light with L19V
notes: also called 28G11_H2L3 with HC Q75K and LC L19V

The binders below were run against T1, human LAP-TGFβ1 overexpressed on cells (human, UniProt P01137 30-390) (assay: flow cytometry; black bar HT1080-huB1, grey bar HT1080).
T1 construct: HT1080 or P3U1 cells overexpressing wild-type human LAP-TGFβ1; also called HT1080-huB1; HT1080-hβ1
T1 sequence (P01137 30-390): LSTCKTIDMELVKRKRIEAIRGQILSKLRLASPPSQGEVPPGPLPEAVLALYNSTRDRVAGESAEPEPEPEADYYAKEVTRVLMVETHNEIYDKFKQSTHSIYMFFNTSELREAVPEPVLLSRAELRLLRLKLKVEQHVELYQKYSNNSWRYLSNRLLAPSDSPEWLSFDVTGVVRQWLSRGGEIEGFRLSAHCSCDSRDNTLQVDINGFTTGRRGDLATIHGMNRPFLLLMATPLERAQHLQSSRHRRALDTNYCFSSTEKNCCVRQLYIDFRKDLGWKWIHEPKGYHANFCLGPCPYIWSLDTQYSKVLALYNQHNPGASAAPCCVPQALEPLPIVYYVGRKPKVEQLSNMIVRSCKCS

binding result	Binder
no binding	B1
binds	B2
binds	B3
binds	B4
binds	B5
no binding	B6
binds	B7
binds	B8
binds	B9
binds	B10
binds	B11
binds	B12
binds	B13
